Laboratory results taken from US20220281981A1 (INVECTYS, published 2022).

Key:
HLA-G1/5 β2M-free = biological target: T1, HLA-G1/5 β2M-free (human, UniProt P17693 25-298, limits assumed); test: flow cytometry, titration of 15E7, readout % of binding
T1 construct: Printed as one antigen, 'HLA-G1/5 β2M-free'; also called HLA-G1/β2M free; HLA-G5/β2M free

HLA-G6 = HLA-G6 (human, UniProt P17693-6 25-227, limits assumed); test: as above
[1] = biological target: T2, HLA-G1 β2M-associated, on lentivirus-transduced cells (Jurkat HLA-G1Lv, K562 HLA-G1Lv) (human, UniProt P17693 25-338; P61769 21-119); test: flow cytometry on Jurkat HLA-G1Lv and K562 HLA-G1Lv cells, GAM-PE detection
T2 construct: whole, on cells; also called HLA-G1 B2M-associated
Experimental: Flow cytometry analyses were performed using LSR FORTESSA (Beckton Dickinson, Le Pont-de-Claix, France); data were analyzed with FlowJo X software (Tree star, Ashland, USA).

B1: 15E7 monoclonal antibody (antibody, V domains shown)
VH: QVQLQQPGAELVRPGSSVKLSCKASGYTFTDYWMDWVKQRPGQGLEWIGTIYPSDSSTHYNQEFKGKATMTVDKSSSTAYMHLSSLTSEDSAVYYCAREGLAGVFYFDYWGQGTTLTVSS
VL: DVLMTQIPFSLPVSLGDQASISCRSSQSIVHRSGNTYLEWYLQKPGQSPKLLIYKVSNRFSGVPDRFSGSGSGTDFTLKISRVEAEDLGVYYCFQGSHLPPTFGGGTTLEIK
notes: Tested as a monoclonal antibody in flow cytometry and detected with goat anti-mouse IgG; also called 15E7 antibody; anti HLA-G-α3 β2M-free 15E7 antibody
- EC50 (read off the curve) (HLA-G1/5 β2M-free): ~0.02 µg/mL
- EC50 (read off the curve) (HLA-G6): ~0.1 µg/mL
- binding result [1]: no binding
